Two molecules from PMC4022879, “Interactions Outside the Proteinase-binding Loop Contribute Significantly to the Inhibition of Activated Coagulation Factor XII by Its Canonical Inhibitor from Corn*^([image sbox.jpg])” (The Journal of Biological Chemistry, 2014) can be followed below.

The target of the assay is activated coagulation factor XI (FXIa) (Activated two-chain form, cleaved after residue 387 (precursor numbering). Heavy and light chains are disulfide-linked, and the whole is a disulfide-linked homodimer; N-glycosylated. The commercial fu). In words: chromogenic enzyme inhibition assay; 200 pM FXIa, 500 μM S2366, 37 °C, 110 mM Tris-HCl pH 8.0, 250 mM NaCl, 1% BSA; residual activity in triplicate at at least six inhibitor concentrations; Ki from a linear fit of 1/v against inhibitor concentration. The following applies: both partners purified.
Chain of activated coagulation factor XI (FXIa) (Activated two-chain form, cleaved after residue 387 (precursor numbering). Heavy and light chains are disulfide-linked, and the whole is a disulfide-linked homodimer; N-glycosylated. The commercial fu) (chain, as listed by the source, chain 1 of 2): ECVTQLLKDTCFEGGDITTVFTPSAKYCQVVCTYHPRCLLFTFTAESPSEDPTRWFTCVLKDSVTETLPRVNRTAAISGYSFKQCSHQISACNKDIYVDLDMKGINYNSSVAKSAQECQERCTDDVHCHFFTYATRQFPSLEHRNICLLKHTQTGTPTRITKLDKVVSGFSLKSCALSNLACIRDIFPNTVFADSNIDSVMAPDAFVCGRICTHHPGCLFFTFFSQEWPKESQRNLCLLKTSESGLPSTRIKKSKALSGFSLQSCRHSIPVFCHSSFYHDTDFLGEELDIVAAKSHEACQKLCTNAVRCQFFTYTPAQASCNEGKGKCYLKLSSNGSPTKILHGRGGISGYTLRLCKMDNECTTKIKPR
Chain of activated coagulation factor XI (FXIa) (Activated two-chain form, cleaved after residue 387 (precursor numbering). Heavy and light chains are disulfide-linked, and the whole is a disulfide-linked homodimer; N-glycosylated. The commercial fu) (chain, as listed by the source, chain 2 of 2): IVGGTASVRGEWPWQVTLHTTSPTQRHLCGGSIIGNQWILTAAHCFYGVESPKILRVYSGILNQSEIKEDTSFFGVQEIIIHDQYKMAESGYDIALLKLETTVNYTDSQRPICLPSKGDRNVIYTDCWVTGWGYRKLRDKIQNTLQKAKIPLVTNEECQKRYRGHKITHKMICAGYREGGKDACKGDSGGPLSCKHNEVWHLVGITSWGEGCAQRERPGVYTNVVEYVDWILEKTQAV

B1: corn Hageman factor inhibitor (CHFI), control protein from Zea mays seeds (natural protein, UniProt P01088 29-138, looked up)
chain: SAGTSCVPGWAIPHNPLPSCRWYVTSRTCGIGPRLPWPELKRRCCRELADIPAYCRCTALSILMDGAIPPGPDAQLEGRLEDLPGCPREVQRGFAATLVTEAECNLATIS
notes: the mature protein has 127 amino acids, scissile bond Arg34-Leu35; numbers count on: the mature protein (PDB 1BEA); also called CHFI-ER; wild-type CHFI; source: bought: Enzyme Research Laboratories (from Z. mays seeds)
B1 yielded an inhibition constant (Ki) of 5.4 ± 0.2 µM.

B2: CHFI-1245, full-size CHFI with Cys29 substituted by Asp (natural protein, Zea mays, UniProt P01088 29-138, looked up)
chain: SAGTSCVPGWAIPHNPLPSCRWYVTSRTDGIGPRLPWPELKRRCCRELADIPAYCRCTALSILMDGAIPPGPDAQLEGRLEDLPGCPREVQRGFAATLVTEAECNLATIS
notes: numbers count on: the mature protein (PDB 1BEA); also called C29D mutant; source: E. coli Rosetta-Gami 2 DE3, purified (Ni2+-agarose); not shown: His6, N-terminal, kept; C-terminal tag of 1.5 kDa (His tag inferred from pET-28a), C-terminal, kept
Regarding B2, the Ki is 490 ± 110 µM.

In general, Ki refers to the equilibrium dissociation constant of an inhibitor or competing ligand from its target.
